Test results: the supplement of paper PMC5998384

Legend:
[1] = tested on: HeLa Kyoto; assay: solubility in G1/S (NP-40 vs SDS abundance) (log2 ratio); higher = more soluble; conditions: cell cycle stage: G1/S
[2] = tested on: HeLa Kyoto; assay: solubility change mitosis vs G1/S (difference of NP-40 vs SDS log2 ratios) (log2 ratio difference); higher = more soluble in mitosis
[3] = tested on: HeLa Kyoto; assay: melting temperature (median over replicates), in situ; higher = more thermally stable
[4] = tested on: HeLa Kyoto; assay: thermal stability score vs G1/S (z-score of summed log2 fold changes over temperatures); higher = more thermally stable than in G1/S
[5] = cell cycle stage: early G1 (4.5 h after nocodazole release)
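For melting temperature (median over replicates), in situ in this document: HeLa Kyoto cells synchronized by double thymidine or nocodazole block, proteins quantified by TMT10plex mass spectrometry, three independent biological replicates.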
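For solubility change mitosis vs G1/S (difference of NP-40 vs SDS log2 ratios) in this document: synchronized HeLa Kyoto cells (double thymidine block for G1/S, nocodazole release for mitosis), protein amounts in NP-40 versus SDS lysates quantified by mass spectrometry, three biological replicates.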
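For solubility in G1/S (NP-40 vs SDS abundance) in this document: HeLa Kyoto cells arrested at G1/S by double thymidine block, proteins quantified by TMT10plex mass spectrometry in mild NP-40 versus SDS extracts, three biological replicates.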
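For thermal stability score vs G1/S (z-score of summed log2 fold changes over temperatures) in this document: synchronized HeLa Kyoto cells, proteins quantified by TMT10plex mass spectrometry, three biological replicates, mitosis taken 0.5 h after nocodazole release, G1/S directly after double thymidine block.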

ATR, sequence (chain, as listed by the source): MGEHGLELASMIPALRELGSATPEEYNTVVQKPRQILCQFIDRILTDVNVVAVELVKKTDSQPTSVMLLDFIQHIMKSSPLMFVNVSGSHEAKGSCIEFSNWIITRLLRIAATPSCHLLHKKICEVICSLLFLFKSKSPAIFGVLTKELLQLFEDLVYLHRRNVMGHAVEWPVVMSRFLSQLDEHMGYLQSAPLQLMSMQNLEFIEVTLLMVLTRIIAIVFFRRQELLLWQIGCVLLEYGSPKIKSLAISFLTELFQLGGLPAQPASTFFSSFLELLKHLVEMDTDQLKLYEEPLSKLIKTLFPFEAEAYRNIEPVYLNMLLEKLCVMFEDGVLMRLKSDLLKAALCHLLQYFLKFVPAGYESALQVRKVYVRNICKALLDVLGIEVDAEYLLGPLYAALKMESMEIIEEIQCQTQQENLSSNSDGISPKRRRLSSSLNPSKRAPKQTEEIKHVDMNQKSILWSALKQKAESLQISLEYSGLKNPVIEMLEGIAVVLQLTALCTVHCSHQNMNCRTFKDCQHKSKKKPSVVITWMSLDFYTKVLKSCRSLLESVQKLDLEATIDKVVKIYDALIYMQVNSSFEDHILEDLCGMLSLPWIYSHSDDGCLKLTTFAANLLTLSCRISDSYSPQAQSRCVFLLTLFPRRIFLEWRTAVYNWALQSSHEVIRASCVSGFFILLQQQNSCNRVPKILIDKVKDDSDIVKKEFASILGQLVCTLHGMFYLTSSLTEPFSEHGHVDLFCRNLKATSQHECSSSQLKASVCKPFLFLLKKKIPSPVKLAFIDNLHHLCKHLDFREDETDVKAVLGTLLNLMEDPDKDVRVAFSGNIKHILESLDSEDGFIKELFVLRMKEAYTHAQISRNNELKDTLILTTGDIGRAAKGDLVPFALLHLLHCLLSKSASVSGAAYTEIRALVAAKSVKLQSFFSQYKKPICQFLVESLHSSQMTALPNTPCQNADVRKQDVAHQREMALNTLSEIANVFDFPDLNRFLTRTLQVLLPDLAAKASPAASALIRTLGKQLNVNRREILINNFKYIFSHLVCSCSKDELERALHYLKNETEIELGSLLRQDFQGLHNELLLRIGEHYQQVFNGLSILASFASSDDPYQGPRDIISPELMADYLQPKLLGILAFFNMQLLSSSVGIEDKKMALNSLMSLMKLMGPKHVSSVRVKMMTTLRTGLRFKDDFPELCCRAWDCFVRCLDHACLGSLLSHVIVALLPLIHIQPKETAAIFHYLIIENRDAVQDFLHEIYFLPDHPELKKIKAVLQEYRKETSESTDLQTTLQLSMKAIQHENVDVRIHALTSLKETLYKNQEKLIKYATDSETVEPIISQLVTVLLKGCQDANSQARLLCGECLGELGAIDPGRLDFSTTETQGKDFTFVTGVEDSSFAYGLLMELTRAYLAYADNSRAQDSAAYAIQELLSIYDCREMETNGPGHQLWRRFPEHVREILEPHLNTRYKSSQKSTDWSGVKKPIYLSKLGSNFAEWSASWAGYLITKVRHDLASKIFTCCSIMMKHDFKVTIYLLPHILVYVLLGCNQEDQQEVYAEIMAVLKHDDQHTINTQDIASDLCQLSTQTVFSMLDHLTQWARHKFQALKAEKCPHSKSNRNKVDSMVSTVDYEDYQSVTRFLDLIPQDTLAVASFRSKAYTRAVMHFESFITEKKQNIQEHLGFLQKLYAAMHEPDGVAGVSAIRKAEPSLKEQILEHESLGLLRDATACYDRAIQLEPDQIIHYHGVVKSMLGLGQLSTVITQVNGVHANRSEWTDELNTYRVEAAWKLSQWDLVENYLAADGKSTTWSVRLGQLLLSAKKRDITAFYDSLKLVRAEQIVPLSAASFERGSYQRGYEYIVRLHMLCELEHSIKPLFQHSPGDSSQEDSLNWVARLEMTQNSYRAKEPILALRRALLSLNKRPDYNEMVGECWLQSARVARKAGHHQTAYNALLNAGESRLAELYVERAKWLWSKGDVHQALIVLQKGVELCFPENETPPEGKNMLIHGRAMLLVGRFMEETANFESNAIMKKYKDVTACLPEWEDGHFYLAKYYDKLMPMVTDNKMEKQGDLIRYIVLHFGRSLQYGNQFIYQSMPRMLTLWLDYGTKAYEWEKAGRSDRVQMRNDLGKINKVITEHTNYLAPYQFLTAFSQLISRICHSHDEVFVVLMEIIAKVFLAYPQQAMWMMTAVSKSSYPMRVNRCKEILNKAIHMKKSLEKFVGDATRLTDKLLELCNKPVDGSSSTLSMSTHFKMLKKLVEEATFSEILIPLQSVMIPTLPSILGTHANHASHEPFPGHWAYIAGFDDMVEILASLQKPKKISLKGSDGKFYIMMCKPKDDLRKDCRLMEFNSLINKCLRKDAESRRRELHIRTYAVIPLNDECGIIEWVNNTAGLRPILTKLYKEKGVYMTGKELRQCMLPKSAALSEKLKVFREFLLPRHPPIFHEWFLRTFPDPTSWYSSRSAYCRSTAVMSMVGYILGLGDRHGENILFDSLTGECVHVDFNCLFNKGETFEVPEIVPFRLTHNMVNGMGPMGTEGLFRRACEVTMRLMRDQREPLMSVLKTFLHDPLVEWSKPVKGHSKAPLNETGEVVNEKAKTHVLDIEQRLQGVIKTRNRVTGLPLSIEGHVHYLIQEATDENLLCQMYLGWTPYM

Substance | solubility in G1/S (log2) [1] | solubility change mitosis (log2) [2] | melting temperature ([3]; cell cycle stage: G1/S) [°C] | melting temperature ([3]; cell cycle stage: mitosis) [°C] | thermal stability score [4, 5] | thermal stability score ([4]; cell cycle stage: mitosis)
MDDFERRRELRRQKREEMRLEAERIAYQRNDDDEEEAARERRRRARQERLRQKQEEESLGQVTDQVEVNAQNSVPDEEAKTTTTNTQVEGDDEAAFLERLARREERRQKRLQEALERQKEFDPTITDASLSLPSRRMQNDTAENETTEKEEKSESRQERYEIEETETVTKSYQKNDWRDAEENKKEDKEKEEEEEEKPKRGSIGENQVEVMVEEKTTESQEETVVMSLKNGQISSEEPKQEEEREQGSDEISHHEKMEEEDKERAEAERARLEAEERERIKAEQDKKIADERARIEAEEKAAAQERERREAEERERMREEEKRAAEERQRIKEEEKRAAEERQRIKEEEKRAAEERQRIKEEEKRAAEERQRARAEEEEKAKVEEQKRNKQLEEKKHAMQETKIKGEKVEQKIEGKWVNEKKAQEDKLQTAVLKKQGEEKGTKVQAKREKLQEDKPTFKKEEIKDEKIKKDKEPKEEVKSFMDRKKGFTEVKSQNGEFMTHKLKHTENTFSRPGGRASVDTKEAEGAPQVEAGKRLEELRRRRGETESEEFEKLKQKQQEAALELEELKKKREERRKVLEEEEQRRKQEEADRKLREEEEKRRLKEEIERRRAEAAEKRQKMPEDGLSDDKKPFKCFTPKGSSLKIEERAEFLNKSVQKSSGVKSTHQAAIVSKIDSRLEQYTSAIEGTKSAKPTKPAASDLPVPAEGVRNIKSMWEKGNVFSSPTAAGTPNKETAGLKVGVSSRINEWLTKTPDGNKSPAPKPSDLRPGDVSSKRNLWEKQSVDKVTSPTKV [CALD1] | 0.0624 | 0.119 | 57.1 | 57.1 | 0.295 | -2.2
MKPAAREARLPPRSPGLRWALPLLLLLLRLGQILCAGGTPSPIPDPSVATVATGENGITQISSTAESFHKQNGTGTPQVETNTSEDGESSGANDSLRTPEQGSNGTDGASQKTPSSTGPSPVFDIKAVSISPTNVILTWKSNDTAASEYKYVVKHKMENEKTITVVHQPWCNITGLRPATSYVFSITPGIGNETWGDPRVIKVITEPIPVSDLRVALTGVRKAALSWSNGNGTASCRVLLESIGSHEELTQDSRLQVNISGLKPGVQYNINPYLLQSNKTKGDPLGTEGGLDASNTERSRAGSPTAPVHDESLVGPVDPSSGQQSRDTEVLLVGLEPGTRYNATVYSQAANGTEGQPQAIEFRTNAIQVFDVTAVNISATSLTLIWKVSDNESSSNYTYKIHVAGETDSSNLNVSEPRAVIPGLRSSTFYNITVCPVLGDIEGTPGFLQVHTPPVPVSDFRVTVVSTTEIGLAWSSHDAESFQMHITQEGAGNSRVEITTNQSIIIGGLFPGTKYCFEIVPKGPNGTEGASRTVCNRTVPSAVFDIHVVYVTTTEMWLDWKSPDGASEYVYHLVIESKHGSNHTSTYDKAITLQGLIPGTLYNITISPEVDHVWGDPNSTAQYTRPSNVSNIDVSTNTTAATLSWQNFDDASPTYSYCLLIEKAGNSSNATQVVTDIGITDATVTELIPGSSYTVEIFAQVGDGIKSLEPGRKSFCTDPASMASFDCEVVPKEPALVLKWTCPPGANAGFELEVSSGAWNNATHLESCSSENGTEYRTEVTYLNFSTSYNISITTVSCGKMAAPTRNTCTTGITDPPPPDGSPNITSVSHNSVKVKFSGFEASHGPIKAYAVILTTGEAGHPSADVLKYTYEDFKKGASDTYVTYLIRTEEKGRSQSLSEVLKYEIDVGNESTTLGYYNGKLEPLGSYRACVAGFTNITFHPQNKGLIDGAESYVSFSRYSDAVSLPQDPGVICGAVFGCIFGALVIVTVGGFIFWRKKRKDAKNNEVSFSQIKPKKSKLIRVENFEAYFKKQQADSNCGFAEEYEDLKLVGISQPKYAAELAENRGKNRYNNVLPYDISRVKLSVQTHSTDDYINANYMPGYHSKKDFIATQGPLPNTLKDFWRMVWEKNVYAIIMLTKCVEQGRTKCEEYWPSKQAQDYGDITVAMTSEIVLPEWTIRDFTVKNIQTSESHPLRQFHFTSWPDHGVPDTTDLLINFRYLVRDYMKQSPPESPILVHCSAGVGRTGTFIAIDRLIYQIENENTVDVYGIVYDLRMHRPLMVQTEDQYVFLNQCVLDIVRSQKDSKVDLIYQNTTAMTIYENLAPVTTFGKTNGYIA [PTPRJ] | -0.204 | 0.155 | 50.6 | 50 | 3.12 | -2.28
MKMADRSGKIIPGQVYIEVEYDYEYEAKDRKIVIKQGERYILVKKTNDDWWQVKPDENSKAFYVPAQYVKEVTRKALMPPVKQVAGLPNNSTKIMQSLHLQRSTENVNKLPELSSFGKPSSSVQGTGLIRDANQNFGPSYNQGQTVNLSLDLTHNNGKFNNDSHSPKVSSQNRTRSFGHFPGPEFLDVEKTSFSQEQSCDSAGEGSERIHQDSESGDELSSSSTEQIRATTPPNQGRPDSPVYANLQELKISQSALPPLPGSPAIQINGEWETHKDSSGRCYYYNRGTQERTWKPPRWTRDASISKGDFQNPGDQELLSSEENYYSTSYSQSDSQCGSPPRGWSEELDERGHTLYTSDYTNEKWLKHVDDQGRQYYYSADGSRSEWELPKYNASSQQQREIIKSRSLDRRLQEPIVLTKWRHSTIVLDTNDKESPTASKPCFPENESSPSSPKHQDTASSPKDQEKYGLLNVTKIAENGKKVRKNWLSSWAVLQGSSLLFTKTQGSSTSWFGSNQSKPEFTVDLKGATIEMASKDKSSKKNVFELKTRQGTELLIQSDNDTVINDWFKVLSSTINNQAVETDEGIEEEIPDSPGIEKHDKEKEQKDPKKLRSFKVSSIDSSEQKKTKKNLKKFLTRRPTLQAVREKGYIKDQVFGSNLANLCQRENGTVPKFVKLCIEHVEEHGLDIDGIYRVSGNLAVIQKLRFAVNHDEKLDLNDSKWEDIHVITGALKMFFRELPEPLFTFNHFNDFVNAIKQEPRQRVAAVKDLIRQLPKPNQDTMQILFRHLRRVIENGEKNRMTYQSIAIVFGPTLLKPEKETGNIAVHTVYQNQIVELILLELSSIFGR [ARHGAP12] | -0.0332 | -0.246 | 50.7 | 50.1 | -0.591 | -0.433
MRPLTEEETRVMFEKIAKYIGENLQLLVDRPDGTYCFRLHNDRVYYVSEKIMKLAANISGDKLVSLGTCFGKFTKTHKFRLHVTALDYLAPYAKYKVWIKPGAEQSFLYGNHVLKSGLGRITENTSQYQGVVVYSMADIPLGFGVAAKSTQDCRKVDPMAIVVFHQADIGEYVRHEETLT [NIP7] | -1.97 | 0.622 | 55.5 | 53.8 | -2 | -2.49
MEPGPDGPAASGPAAIREGWFRETCSLWPGQALSLQVEQLLHHRRSRYQDILVFRSKTYGNVLVLDGVIQCTERDEFSYQEMIANLPLCSHPNPRKVLIIGGGDGGVLREVVKHPSVESVVQCEIDEDVIQVSKKFLPGMAIGYSSSKLTLHVGDGFEFMKQNQDAFDVIITDSSDPMGPAESLFKESYYQLMKTALKEDGVLCCQGECQWLHLDLIKEMRQFCQSLFPVVAYAYCTIPTYPSGQIGFMLCSKNPSTNFQEPVQPLTQQQVAQMQLKYYNSDVHRAAFVLPEFARKALNDVS [SRM] | 0.283 | -0.232 | 51.8 | 51.9 | 0.149 | 0.82
MAANYSSTSTRREHVKVKTSSQPGFLERLSETSGGMFVGLMAFLLSFYLIFTNEGRALKTATSLAEGLSLVVSPDSIHSVAPENEGRLVHIIGALRTSKLLSDPNYGVHLPAVKLRRHVEMYQWVETEESREYTEDGQVKKETRYSYNTEWRSEIINSKNFDREIGHKNPSAMAVESFMATAPFVQIGRFFLSSGLIDKVDNFKSLSLSKLEDPHVDIIRRGDFFYHSENPKYPEVGDLRVSFSYAGLSGDDPDLGPAHVVTVIARQRGDQLVPFSTKSGDTLLLLHHGDFSAEEVFHRELRSNSMKTWGLRAAGWMAMFMGLNLMTRILYTLVDWFPVFRDLVNIGLKAFAFCVATSLTLLTVAAGWLFYRPLWALLIAGLALVPILVARTRVPAKKLE [TMEM43] | -0.206 | -0.244 | 53.5 | 53.1 | 3.06 | 4.18
MKSSVAQIKPSSGHDRRENLNSYQRNSSPEDRYEEQERSPRDRDYFDYSRSDYEHSRRGRSYDSSMESRNRDREKRRERERDTDRKRSRKSPSPGRRNPETSVTQSSSAQDEPATKKKKDELDPLLTRTGGAYIPPAKLRMMQEQITDKNSLAYQRMSWEALKKSINGLINKVNISNISIIIQELLQENIVRGRGLLSRSVLQAQSASPIFTHVYAALVAIINSKFPQIGELILKRLILNFRKGYRRNDKQLCLTASKFVAHLINQNVAHEVLCLEMLTLLLERPTDDSVEVAIGFLKECGLKLTQVSPRGINAIFERLRNILHESEIDKRVQYMIEVMFAVRKDGFKDHPIILEGLDLVEEDDQFTHMLPLEDDYNPEDVLNVFKMDPNFMENEEKYKAIKKEILDEGDTDSNTDQDAGSSEEDEEEEEEEGEEDEEGQKVTIHDKTEINLVSFRRTIYLAIQSSLDFEECAHKLLKMEFPESQTKELCNMILDCCAQQRTYEKFFGLLAGRFCMLKKEYMESFEGIFKEQYDTIHRLETNKLRNVAKMFAHLLYTDSLPWSVLECIKLSEETTTSSSRIFVKIFFQELCEYMGLPKLNARLKDETLQPFFEGLLPRDNPRNTRFAINFFTSIGLGGLTDELREHLKNTPKVIVAQKPDVEQNKSSPSSSSSASSSSESDSSDSDSDSSDSSSESSSEESDSSSISSHSSASANDVRKKGHGKTRSKEVDKLIRNQQTNDRKQKERRQEHGHQETRTERERRSEKHRDQNSSGSNWRDPITKYTSDKDVPSERNNYSRVANDRDQEMHIDLENKHGDPKKKRGERRNSFSENEKHTHRIKDSENFRRKDRSKSKEMNRKHSGSRSDEDRYQNGAERRWEKSSRYSEQSRESKKNQDRRREKSPAKQK [CWC22] | -0.707 | 0.227 | 46.1 | 49.3 | 1.24 | 2.43
ATR | -0.368 | -0.097 | 50.7 | 50.5 | -0.0687 | 0.0624
MAAAAECDVVMAATEPELLDDQEAKREAETFKEQGNAYYAKKDYNEAYNYYTKAIDMCPKNASYYGNRAATLMMLGRFREALGDAQQSVRLDDSFVRGHLREGKCHLSLGNAMAACRSFQRALELDHKNAQAQQEFKNANAVMEYEKIAETDFEKRDFRKVVFCMDRALEFAPACHRFKILKAECLAMLGRYPEAQSVASDILRMDSTNADALYVRGLCLYYEDCIEKAVQFFVQALRMAPDHEKACIACRNAKALKAKKEDGNKAFKEGNYKLAYELYTEALGIDPNNIKTNAKLYCNRGTVNSKLRKLDDAIEDCTNAVKLDDTYIKAYLRRAQCYMDTEQYEEAVRDYEKVYQTEKTKEHKQLLKNAQLELKKSKRKDYYKILGVDKNASEDEIKKAYRKRALMHHPDRHSGASAEVQKEEEKKFKEVGEAFTILSDPKKKTRYDSGQDLDEEGMNMGDFDPNNIFKAFFGGPGGFSFEASGPGNFFFQFG [DNAJC7] | 0.556 | -0.0134 | 48.8 | 49.3 | 0.609 | 1.11
MPFPFGKSHKSPADIVKNLKESMAVLEKQDISDKKAEKATEEVSKNLVAMKEILYGTNEKEPQTEAVAQLAQELYNSGLLSTLVADLQLIDFEGKKDVAQIFNNILRRQIGTRTPTVEYICTQQNILFMLLKGYESPEIALNCGIMLRECIRHEPLAKIILWSEQFYDFFRYVEMSTFDIASDAFATFKDLLTRHKLLSAEFLEQHYDRFFSEYEKLLHSENYVTKRQSLKLLGELLLDRHNFTIMTKYISKPENLKLMMNLLRDKSRNIQFEAFHVFKVFVANPNKTQPILDILLKNQAKLIEFLSKFQNDRTEDEQFNDEKTYLVKQIRDLKRPAQQEA [CAB39] | 0.0309 | -0.178 | 54.3 | 55.4 | 0.362 | 2.14
MAAGDGDVKLGTLGSGSESSNDGGSESPGDAGAAAEGGGWAAAALALLTGGGEMLLNVALVALVLLGAYRLWVRWGRRGLGAGAGAGEESPATSLPRMKKRDFSLEQLRQYDGSRNPRILLAVNGKVFDVTKGSKFYGPAGPYGIFAGRDASRGLATFCLDKDALRDEYDDLSDLNAVQMESVREWEMQFKEKYDYVGRLLKPGEEPSEYTDEEDTKDHNKQD [PGRMC2] | 0.236 | -0.00423 | 52.3 | 53.9 | -0.577 | 0.992
